Legend:
[1] = target: recombinant mouse FGFR2b (mouse) (UniProt P21803); assay: ELISA, antibody 1ug/mL
FGFR1 (acro) = FGFR1 (acro) (UniProt P11362); assay: ELISA, antibody 10 µg/mL
[2] = target: recombinant mouse FGFR2b (mouse) (UniProt P21803); assay: BLI, antibody on AHC2 sensor
[3] = target: extracellular domain of the FGFR2b protein (NP_075259.4) (UniProt P21802); assay: phage ELISA
extracellular domain of the FGFR2b protein (NP_075259.4), sequence (P21802 other isoform, or with tags, fused parts or gaps): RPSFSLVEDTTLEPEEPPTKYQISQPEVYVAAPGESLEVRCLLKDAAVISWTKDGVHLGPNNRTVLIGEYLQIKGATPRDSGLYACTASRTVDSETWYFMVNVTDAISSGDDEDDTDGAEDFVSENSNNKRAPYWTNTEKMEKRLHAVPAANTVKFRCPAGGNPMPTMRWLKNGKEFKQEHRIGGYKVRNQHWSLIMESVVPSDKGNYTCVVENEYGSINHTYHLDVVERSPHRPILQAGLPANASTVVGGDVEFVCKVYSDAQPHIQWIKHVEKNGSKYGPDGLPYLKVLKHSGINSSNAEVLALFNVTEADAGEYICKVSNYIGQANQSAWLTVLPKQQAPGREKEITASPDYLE

recombinant mouse FGFR2b (mouse), sequence (P21803 22-377): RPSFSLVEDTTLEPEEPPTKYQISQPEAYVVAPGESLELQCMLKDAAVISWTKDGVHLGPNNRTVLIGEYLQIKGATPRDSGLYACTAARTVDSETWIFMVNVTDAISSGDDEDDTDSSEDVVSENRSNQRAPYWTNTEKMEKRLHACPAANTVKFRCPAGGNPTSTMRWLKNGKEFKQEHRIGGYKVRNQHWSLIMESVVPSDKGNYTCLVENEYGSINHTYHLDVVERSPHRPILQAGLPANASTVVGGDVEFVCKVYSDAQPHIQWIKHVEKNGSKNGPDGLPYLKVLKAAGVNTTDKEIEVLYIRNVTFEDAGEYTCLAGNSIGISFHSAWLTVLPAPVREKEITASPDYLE
FGFR1 (acro), sequence (P11362 22-376): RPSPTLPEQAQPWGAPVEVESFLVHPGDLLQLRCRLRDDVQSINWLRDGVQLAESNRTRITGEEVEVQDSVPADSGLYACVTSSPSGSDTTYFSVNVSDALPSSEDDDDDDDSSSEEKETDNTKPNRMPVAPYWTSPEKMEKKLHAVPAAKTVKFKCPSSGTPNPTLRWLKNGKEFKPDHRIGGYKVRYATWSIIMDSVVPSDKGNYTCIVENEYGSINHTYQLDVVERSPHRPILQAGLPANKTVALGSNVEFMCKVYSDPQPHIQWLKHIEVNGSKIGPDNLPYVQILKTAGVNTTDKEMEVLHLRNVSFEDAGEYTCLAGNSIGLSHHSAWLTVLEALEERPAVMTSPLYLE

Row | Binder | OD (450 nm) value [1] | OD (450 nm) value (FGFR1 (acro)) | Kd [2] [nM] | koff [2] [s⁻¹] | kon [2] [M⁻¹ s⁻¹] | OD (450 nm) value [3]
1 | 3E7 scFv-Fc (Fc fusion) QVQLQQSGAELVKPGASVKMSCKASGYTFTIYNIHWVRQTPGQGLEWIGLIYPDNGDTSYNQKFKAKATLTADKSSSTAYMQLSSLTSEDSAVYYCARGGFDYWGQGTTLTVSSGGGGSGGGGSGGGGSNIVMTQSQKFMSTSVGDRVSVTCKASQNVGTNVAWYQQKPGQSPKALIYSASYRYSGVPDRFTGSGSGTDFTLTISGVQAEDLADYYCQQHYNTPYTFGGGTKLEIKESKYGPPCPPCPAPEAAGGPSVFLFPPKPKDTLMISRTPEVTCVVVDVSQEDPEVQFNWYVDGVEVHNAKTKPREEQFNSTYRVVSVLTVLHQDWLNGKEYKCKVSNKGLPSSIEKTISKAKGQPREPQVYTLPPSQEEMTKNQVSLTCLVKGFYPSDIAVEWESNGQPENNYKTTPPVLDSDGSFFLYSKLTVDKSRWQEGNVFSCSVMHEALHNHYTQKSLSLSLG | 2.29 | 0.093 | 40.9 | 0.00175 | 42800 | –
2 | 3C7 scFv displayed on phage (scFv) scFv: EIQLQQSGAELVKPGASVKMSCKASGYIFRNYYIHWVKRTPGQGLEWIGAIYPDNGDTSYNQRFKVKATLTADTSSSTAYMQLSSLTSEDSAVYYCARAFTYWGQGTTLTVSSGGGGSGGGGSGGGGSDIQMIQSPASLSASVGETVTITCGASENIYGALNWYQRKQGKSPQLLIYGATNLADGMSSRFSGSGSGRQYSLKISSLHPDDVATYYCQNVLSTPYTFGGGTKLEIK | – | – | – | – | – | 2.02
3 | 3H6 scFv-Fc (Fc fusion) QVQLQQSGAELVKPGASVKMSCKASGYTFSFYNIHWVRQTPGQGLEWIGLIYPDNGDTSYNQKFKAKATLTADKSSSTAYMQLSSLTSEDSAVYYCARGGFDYWGQGTTLTVSSGGGGSGGGGSGGGGSDIQMTQSPASLSASVGETVTITCRASENIYSYLAWYQQKQGKSPQLLVYNAKTLAEGVPSRFSGSGSGTQFSLKINSLQPEDFGSYYCQHHYGTPYTFGGGTKLEMKESKYGPPCPPCPAPEAAGGPSVFLFPPKPKDTLMISRTPEVTCVVVDVSQEDPEVQFNWYVDGVEVHNAKTKPREEQFNSTYRVVSVLTVLHQDWLNGKEYKCKVSNKGLPSSIEKTISKAKGQPREPQVYTLPPSQEEMTKNQVSLTCLVKGFYPSDIAVEWESNGQPENNYKTTPPVLDSDGSFFLYSKLTVDKSRWQEGNVFSCSVMHEALHNHYTQKSLSLSLG | 2.39 | 0.077 | 43.7 | 0.00156 | 35700 | –
4 | 3D6 scFv-Fc (Fc fusion) QVQLQQSGAELVKPGASVKMSCKASGYTFRYYNMHWVKRTPGQGLEWIGLIYPDNGDTSYNQKFKGKATLTADTSSSTAYMQLSSLTSEDSAVYYCARGGLDYWGQGTSLTVSSGGGGSGGGGSGGGGSDIQMTQSPASLSVSVGETVTITCRASENIYSNLAWYQQKQGKSPQLLVYNAKTLADGVPSRFSGSGSGTQYSLKINSLQPEDFGSYYCQHFWSTPFTFGSGTKLELKESKYGPPCPPCPAPEAAGGPSVFLFPPKPKDTLMISRTPEVTCVVVDVSQEDPEVQFNWYVDGVEVHNAKTKPREEQFNSTYRVVSVLTVLHQDWLNGKEYKCKVSNKGLPSSIEKTISKAKGQPREPQVYTLPPSQEEMTKNQVSLTCLVKGFYPSDIAVEWESNGQPENNYKTTPPVLDSDGSFFLYSKLTVDKSRWQEGNVFSCSVMHEALHNHYTQKSLSLSLG | 2.59 | 0.693 | 21.7 | 0.000593 | 27400 | –
5 | 3A12 scFv-Fc (Fc fusion) EVQLQQSGAELVKPGASVKMSCKASGYTFSFYNVHWVRQTPGQGLEWIGLIYPDNGDTSYNQKFKAKATLTADKSSSAAYMQLSSLTSEDSAVYYCARGGFDYWGQGTSLTVSSGGGGSGGGGSGGGGSDIVMTQSHKFMSTSVGDRVNITCKASQDVSTAVAWYQQKPGQSPKLLIYSASYRYSGVPDRFTGSGSGTDFTFTISSVQAEDLAVYYCQQHYSTPYTFGGGTKLEMKESKYGPPCPPCPAPEAAGGPSVFLFPPKPKDTLMISRTPEVTCVVVDVSQEDPEVQFNWYVDGVEVHNAKTKPREEQFNSTYRVVSVLTVLHQDWLNGKEYKCKVSNKGLPSSIEKTISKAKGQPREPQVYTLPPSQEEMTKNQVSLTCLVKGFYPSDIAVEWESNGQPENNYKTTPPVLDSDGSFFLYSKLTVDKSRWQEGNVFSCSVMHEALHNHYTQKSLSLSLG | 2.91 | 0.076 | 10.7 | 0.000485 | 45400 | –
6 | 3F10 scFv-Fc (Fc fusion) EVQLQQSGAELVKPGASVKMSCKASGYTFSFYNIHWVRQTPGQGLEWIGLIYPDNGDTSYNQKFKAKATLTADKSSSTAYMQLSSLTSEDSAVYYCARGGFDYWGQGTTLTVSSGGGGSGGGGSGGGGSDVLMTQSPASLSASVGETVTITCGASENIYGALNWYQRKQGKSPQLLIYGATNLADGMSSRFSGSGSGRQYSLKISSLHPDDVATYYCQNVLSTPYTFGGGTKLEIKESKYGPPCPPCPAPEAAGGPSVFLFPPKPKDTLMISRTPEVTCVVVDVSQEDPEVQFNWYVDGVEVHNAKTKPREEQFNSTYRVVSVLTVLHQDWLNGKEYKCKVSNKGLPSSIEKTISKAKGQPREPQVYTLPPSQEEMTKNQVSLTCLVKGFYPSDIAVEWESNGQPENNYKTTPPVLDSDGSFFLYSKLTVDKSRWQEGNVFSCSVMHEALHNHYTQKSLSLSLG | 2.87 | 0.086 | 52.5 | 0.00217 | 41300 | –
7 | 2B1 scFv-Fc (Fc fusion) EVQLQQSGAELVKPGASVKMSCKASGYTFASYNLHWVKQTPGQGLEWIGLIYPENGDTSYNQKFKGKATLTADKSSSTAYIQLSSLTSEDSAVYFCARGGFDYWGQGTSLTVSSGGGGSGGGGSGGGGSDIQMIQSPASLSVSVGETVTITCRASENIYSNLAWYQQKQGKSPQLLVYNAKTLADGVPSRFSGSGSGTQYSLKINSLQPEDFGSYYCQHFWSTPYTFGGGTKLEIKESKYGPPCPPCPAPEAAGGPSVFLFPPKPKDTLMISRTPEVTCVVVDVSQEDPEVQFNWYVDGVEVHNAKTKPREEQFNSTYRVVSVLTVLHQDWLNGKEYKCKVSNKGLPSSIEKTISKAKGQPREPQVYTLPPSQEEMTKNQVSLTCLVKGFYPSDIAVEWESNGQPENNYKTTPPVLDSDGSFFLYSKLTVDKSRWQEGNVFSCSVMHEALHNHYTQKSLSLSLG | 2.72 | 0.076 | 23 | 0.00126 | 54800 | –
8 | 3B7 scFv displayed on phage (scFv) scFv: EVQLQQSGAELVKPGASVKMSCKASGYTFRYYNMHWVKRTPGQGLEWIGLIYPDNGDTSYNQKFKGKATLTADTSSSTAYMQLSSLTSEDSAVYYCARGGFDYWGQGTTLTVSSGGGGSGGGGSGGGGSDIQMTQSPASLSASVGETVTITCGASENIYGALNWYQRKQGKSPQLLIYGATNLADGMSSRFSGSGSGRQYSLKISSLHPDDVATYYCQNVLSTPYTFGGGTKLELK | – | – | – | – | – | 2.03
9 | 3C9 scFv displayed on phage (scFv) scFv: EIQLQQSGAELVKPGASVKMSCKASGYIFRYYNMHWVKRTPGQGLEWIGLIYPDNGDTSYNQKFKGKATLTADTSSSTAYMQLSSLTSEDSAVYYCARGGLDYWGQGTTLTVSSGGGGSGGGGSGGGGSDIQMIQSPASLSASVGETVTITCGASENIYGALNWYQRKQGKSPQLLIYGATNLADGMSSRFSGSGSGRQYSLKISSLHPDDVATYYCQNVLSTPYTFGGGTKLEIK | – | – | – | – | – | 2.08
10 | 3F5 scFv-Fc (Fc fusion) EIQLQQSGAELVKPGASVKMSCKASGYTFRYYNMHWVKRTPGQGLEWIGLIYPDNGDTSYNQKFKGKATLTADTSSSTAYMQLSSLTSEDSAVYYCARGGLDYWGQGTTLTVSSGGGGSGGGGSGGGGSDIVLTQSPASLSASVGETVTITCGASENIYGALNWYQRKQGKSPQLLIYGATNLADGMSSRFSGSGSGRQYSLKISSLHPDDVATYYCQNVLSTPYTFGGGTKLEIKESKYGPPCPPCPAPEAAGGPSVFLFPPKPKDTLMISRTPEVTCVVVDVSQEDPEVQFNWYVDGVEVHNAKTKPREEQFNSTYRVVSVLTVLHQDWLNGKEYKCKVSNKGLPSSIEKTISKAKGQPREPQVYTLPPSQEEMTKNQVSLTCLVKGFYPSDIAVEWESNGQPENNYKTTPPVLDSDGSFFLYSKLTVDKSRWQEGNVFSCSVMHEALHNHYTQKSLSLSLG | 2.38 | 0.108 | 36.1 | 0.00162 | 44800 | –
11 | 3C9 scFv-Fc (Fc fusion) EIQLQQSGAELVKPGASVKMSCKASGYIFRYYNMHWVKRTPGQGLEWIGLIYPDNGDTSYNQKFKGKATLTADTSSSTAYMQLSSLTSEDSAVYYCARGGLDYWGQGTTLTVSSGGGGSGGGGSGGGGSDIQMIQSPASLSASVGETVTITCGASENIYGALNWYQRKQGKSPQLLIYGATNLADGMSSRFSGSGSGRQYSLKISSLHPDDVATYYCQNVLSTPYTFGGGTKLEIKESKYGPPCPPCPAPEAAGGPSVFLFPPKPKDTLMISRTPEVTCVVVDVSQEDPEVQFNWYVDGVEVHNAKTKPREEQFNSTYRVVSVLTVLHQDWLNGKEYKCKVSNKGLPSSIEKTISKAKGQPREPQVYTLPPSQEEMTKNQVSLTCLVKGFYPSDIAVEWESNGQPENNYKTTPPVLDSDGSFFLYSKLTVDKSRWQEGNVFSCSVMHEALHNHYTQKSLSLSLG | 2.57 | 0.113 | 9.95 | 0.000483 | 48500 | –
12 | 3C7 scFv-Fc (Fc fusion) EIQLQQSGAELVKPGASVKMSCKASGYIFRNYYIHWVKRTPGQGLEWIGAIYPDNGDTSYNQRFKVKATLTADTSSSTAYMQLSSLTSEDSAVYYCARAFTYWGQGTTLTVSSGGGGSGGGGSGGGGSDIQMIQSPASLSASVGETVTITCGASENIYGALNWYQRKQGKSPQLLIYGATNLADGMSSRFSGSGSGRQYSLKISSLHPDDVATYYCQNVLSTPYTFGGGTKLEIKESKYGPPCPPCPAPEAAGGPSVFLFPPKPKDTLMISRTPEVTCVVVDVSQEDPEVQFNWYVDGVEVHNAKTKPREEQFNSTYRVVSVLTVLHQDWLNGKEYKCKVSNKGLPSSIEKTISKAKGQPREPQVYTLPPSQEEMTKNQVSLTCLVKGFYPSDIAVEWESNGQPENNYKTTPPVLDSDGSFFLYSKLTVDKSRWQEGNVFSCSVMHEALHNHYTQKSLSLSLG | 3.1 | 0.077 | 8.71 | 0.000365 | 41900 | –

Reference: patent EP4714976A1
